The test system of data set [1] is HeLa Kyoto. The data set can be described thus: thermal stability score vs G1/S (z-score of summed log2 fold changes over temperatures); higher = more thermally stable than in G1/S.
The test system of data set [2] is HeLa Kyoto. The data set can be described thus: solubility in G1/S (NP-40 vs SDS abundance) (log2 ratio); higher = more soluble. Particulars: cell cycle stage: G1/S.
Data set [3] deals with HeLa Kyoto. The data set can be described thus: solubility change mitosis vs G1/S (difference of NP-40 vs SDS log2 ratios) (log2 ratio difference); higher = more soluble in mitosis.
In data set [4] the test system is HeLa Kyoto. The data set can be described thus: melting temperature (median over replicates), in situ; higher = more thermally stable.
The mark [5] stands for this setting: cell cycle stage: early G1 (4.5 h after nocodazole release).
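Throughout, for melting temperature (median over replicates), in situ: HeLa Kyoto cells synchronized by double thymidine or nocodazole block, proteins quantified by TMT10plex mass spectrometry, three independent biological replicates.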
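Throughout, for solubility change mitosis vs G1/S (difference of NP-40 vs SDS log2 ratios): synchronized HeLa Kyoto cells (double thymidine block for G1/S, nocodazole release for mitosis), protein amounts in NP-40 versus SDS lysates quantified by mass spectrometry, three biological replicates.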
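Throughout, for solubility in G1/S (NP-40 vs SDS abundance): HeLa Kyoto cells arrested at G1/S by double thymidine block, proteins quantified by TMT10plex mass spectrometry in mild NP-40 versus SDS extracts, three biological replicates.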
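Throughout, for thermal stability score vs G1/S (z-score of summed log2 fold changes over temperatures): synchronized HeLa Kyoto cells, proteins quantified by TMT10plex mass spectrometry, three biological replicates, mitosis taken 0.5 h after nocodazole release, G1/S directly after double thymidine block.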

On to “MNHLNVLAKALYDNVAESPDELSFRKGDIMTVLEQDTQGLDGWWLCSLHGRQGIVPGNRLKILVGMYDKKPAGPGPGPPATPAQPQPGLHAPAPPASQYTPMLPNTYQPQPDSVYLVPTPSKAQQGLYQVPGPSPQFQSPPAKQTSTFSKQTPHHPFPSPATDLYQVPPGPGGPAQDIYQVPPSAGMGHDIYQVPPSMDTRSWEGTKPPAKVVVPTRVGQGYVYEAAQPEQDEYDIPRHLLAPGPQDIYDVPPVRGLLPSQYGQEVYDTPPMAVKGPNGRDPLLEVYDVPPSVEKGLPPSNHHAVYDVPPSVSKDVPDGPLLREETYDVPPAFAKAKPFDPARTPLVLAAPPPDSPPAEDVYDVPPPAPDLYDVPPGLRRPGPGTLYDVPRERVLPPEVADGGVVDSGVYAVPPPAEREAPAEGKRLSASSTGSTRSSQSASSLEVAGPGREPLELEVAVEALARLQQGVSATVAHLLDLAGSAGATGSWRSPSEPQEPLVQDLQAAVAAVQSAVHELLEFARSAVGNAAHTSDRALHAKLSRQLQKMEDVHQTLVAHGQALDAGRGGSGATLEDLDRLVACSRAVPEDAKQLASFLHGNASLLFRRTKATAPGPEGGGTLHPNPTDKTSSIQSRPLPSPPKFTSQDSPDGQYENSEGGWMEDYDYVHLQGKEEFEKTQKELLEKGSITRQGKSQLELQQLKQFERLEQEVSRPIDHDLANWTPAQPLAPGRTGGLGPSDRQLLLFYLEQCEANLTTLTNAVDAFFTAVATNQPPKIFVAHSKFVILSAHKLVFIGDTLSRQAKAADVRSQVTHYSNLLCDLLRGIVATTKAAALQYPSPSAAQDMVERVKELGHSTQQFRRVLGQLAAA [BCAR1]”, for which the thermal stability score is 0.46 in the data set on HeLa Kyoto [1] (setting [5]) and 2.67 in the data set with HeLa Kyoto [1] (cell cycle stage: mitosis). In addition, in the data set with HeLa Kyoto [2], the “solubility in G1/S (log2)” value amounted to 0.471. In addition, the “solubility change mitosis (log2)” value in the data set on HeLa Kyoto [3] amounted to 0.0584. Moreover, the melting temperature in the data set on HeLa Kyoto [4] (cell cycle stage: G1/S) came out at 49.1 °C; in the data set on HeLa Kyoto [4] (cell cycle stage: mitosis) it was 49.4 °C.
Turning to “MNIDDKLEGLFLKCGGIDEMQSSRTMVVMGGVSGQSTVSGELQDSVLQDRSMPHQEILAADEVLQESEMRQQDMISHDELMVHEETVKNDEEQMETHERLPQGLQYALNVPISVKQEITFTDVSEQLMRDKKQIREPVDLQKKKKRKQRSPAKILTINEDGSLGLKTPKSHVCEHCNAAFRTNYHLQRHVFIHTGEKPFQCSQCDMRFIQKYLLQRHEKIHTGEKPFRCDECGMRFIQKYHMERHKRTHSGEKPYQCEYCLQYFSRTDRVLKHKRMCHENHDKKLNRCAIKGGLLTSEEDSGFSTSPKDNSLPKKKRQKTEKKSSGMDKESALDKSDLKKDKNDYLPLYSSSTKVKDEYMVAEYAVEMPHSSVGGSHLEDASGEIHPPKLVLKKINSKRSLKQPLEQNQTISPLSTYEESKVSKYAFELVDKQALLDSEGNADIDQVDNLQEGPSKPVHSSTNYDDAMQFLKKKRYLQAASNNSREYALNVGTIASQPSVTQAAVASVIDESTTASILESQALNVEIKSNHDKNVIPDEVLQTLLDHYSHKANGQHEISFSVADTEVTSSISINSSEVPEVTPSENVGSSSQASSSDKANMLQEYSKFLQQALDRTSQNDAYLNSPSLNFVTDNQTLPNQPAFSSIDKQVYATMPINSFRSGMNSPLRTTPDKSHFGLIVGDSQHSFPFSGDETNHASATSTQDFLDQVTSQKKAEAQPVHQAYQMSSFEQPFRAPYHGSRAGIATQFSTANGQVNLRGPGTSAEFSEFPLVNVNDNRAGMTSSPDATTGQTFG [ZNF148]”, the figures for the thermal stability score with HeLa Kyoto [1] (setting [5]) and with HeLa Kyoto [1] (cell cycle stage: mitosis) were 1.13 and -1.33, respectively. The “solubility in G1/S (log2)” value in the data set on HeLa Kyoto [2] is -0.236. Further, the “solubility change mitosis (log2)” value in the data set on HeLa Kyoto [3] is 0.123. Also, the melting temperature in the data set on HeLa Kyoto [4] (cell cycle stage: G1/S) is 51.6 °C; with HeLa Kyoto [4] (cell cycle stage: mitosis), 51.1 °C.
With “MNIMDFNVKKLAADAGTFLSRAVQFTEEKLGQAEKTELDAHLENLLSKAECTKIWTEKIMKQTEVLLQPNPNARIEEFVYEKLDRKAPSRINNPELLGQYMIDAGTEFGPGTAYGNALIKCGETQKRIGTADRELIQTSALNFLTPLRNFIEGDYKTIAKERKLLQNKRLDLDAAKTRLKKAKAAETRNSSEQELRITQSEFDRQAEITRLLLEGISSTHAHHLRCLNDFVEAQMTYYAQCYQYMLDLQKQLGSFPSNYLSNNNQTSVTPVPSVLPNAIGSSAMASTSGLVITSPSNLSDLKECSGSRKARVLYDYDAANSTELSLLADEVITVFSVVGMDSDWLMGERGNQKGKVPITYLELLN [SH3GLB1]”, the thermal stability score in the data set on HeLa Kyoto [1] (setting [5]) came out at 1.13; in the data set with HeLa Kyoto [1] (cell cycle stage: mitosis), 2.44. Also, the “solubility in G1/S (log2)” value in the data set with HeLa Kyoto [2] amounted to 0.531. Besides, in the data set with HeLa Kyoto [3], the “solubility change mitosis (log2)” value worked out at 0.00172. Moreover, the results for the melting temperature in the data set with HeLa Kyoto [4] (cell cycle stage: G1/S) and in the data set on HeLa Kyoto [4] (cell cycle stage: mitosis) were 48.1 °C and 48.7 °C, respectively.
In the case of “MNKHQKPVLTGQRFKTRKRDEKEKFEPTVFRDTLVQGLNEAGDDLEAVAKFLDSTGSRLDYRRYADTLFDILVAGSMLAPGGTRIDDGDKTKMTNHCVFSANEDHETIRNYAQVFNKLIRRYKYLEKAFEDEMKKLLLFLKAFSETEQTKLAMLSGILLGNGTLPATILTSLFTDSLVKEGIAASFAVKLFKAWMAEKDANSVTSSLRKANLDKRLLELFPVNRQSVDHFAKYFTDAGLKELSDFLRVQQSLGTRKELQKELQERLSQECPIKEVVLYVKEEMKRNDLPETAVIGLLWTCIMNAVEWNKKEELVAEQALKHLKQYAPLLAVFSSQGQSELILLQKVQEYCYDNIHFMKAFQKIVVLFYKADVLSEEAILKWYKEAHVAKGKSVFLDQMKKFVEWLQNAEEESESEGEEN [BZW2]”, the thermal stability score with HeLa Kyoto [1] (setting [5]) came to 2.74; with HeLa Kyoto [1] (cell cycle stage: mitosis), 3.19. Further, in the data set with HeLa Kyoto [2], the “solubility in G1/S (log2)” value is 0.446. Further, the “solubility change mitosis (log2)” value in the data set with HeLa Kyoto [3] was -0.11. The melting temperature in the data set with HeLa Kyoto [4] (cell cycle stage: G1/S) came to 51.3 °C; with HeLa Kyoto [4] (cell cycle stage: mitosis), 50.1 °C.

(Values after the supplement of paper PMC5998384.)
